Laboratory results taken from patent US20260184748A1 (University of Pennsylvania, published 2026).
Where no end group is shown, it is not given here.

What was measured:
Assay in all cases: cell-based or functional assay
[1] = target: T1, GPR120 (UniProt Q5NUL3 1-361, limits assumed)
T1 sequence (looked up): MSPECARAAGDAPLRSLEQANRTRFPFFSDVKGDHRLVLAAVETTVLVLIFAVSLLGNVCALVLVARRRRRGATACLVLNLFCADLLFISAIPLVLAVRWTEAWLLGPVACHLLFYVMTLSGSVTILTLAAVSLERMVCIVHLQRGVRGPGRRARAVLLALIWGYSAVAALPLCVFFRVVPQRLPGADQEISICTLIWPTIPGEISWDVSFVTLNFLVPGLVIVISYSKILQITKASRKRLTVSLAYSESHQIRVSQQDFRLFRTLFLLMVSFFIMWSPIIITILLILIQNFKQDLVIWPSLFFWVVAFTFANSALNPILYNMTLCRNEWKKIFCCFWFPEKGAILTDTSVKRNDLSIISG

[2] = target: T2, BDKRB2 (UniProt P30411 1-391, limits assumed)
T2 sequence (looked up): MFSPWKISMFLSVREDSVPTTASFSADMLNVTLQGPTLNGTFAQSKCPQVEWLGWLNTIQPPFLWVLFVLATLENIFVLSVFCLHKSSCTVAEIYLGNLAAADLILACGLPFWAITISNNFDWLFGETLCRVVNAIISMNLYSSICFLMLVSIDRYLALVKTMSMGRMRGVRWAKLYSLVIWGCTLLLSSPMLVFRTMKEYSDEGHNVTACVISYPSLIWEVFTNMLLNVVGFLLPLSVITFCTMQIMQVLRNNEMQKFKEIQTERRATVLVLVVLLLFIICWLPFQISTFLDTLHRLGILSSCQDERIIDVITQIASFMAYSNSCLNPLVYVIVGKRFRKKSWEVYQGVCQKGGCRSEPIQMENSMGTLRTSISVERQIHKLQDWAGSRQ

[3] = target: F2RL1 (UniProt P55085 26-397, limits assumed)
[4] = target: MCHR1 (UniProt Q99705 1-353)
MCHR1, sequence (Q99705 whole entry): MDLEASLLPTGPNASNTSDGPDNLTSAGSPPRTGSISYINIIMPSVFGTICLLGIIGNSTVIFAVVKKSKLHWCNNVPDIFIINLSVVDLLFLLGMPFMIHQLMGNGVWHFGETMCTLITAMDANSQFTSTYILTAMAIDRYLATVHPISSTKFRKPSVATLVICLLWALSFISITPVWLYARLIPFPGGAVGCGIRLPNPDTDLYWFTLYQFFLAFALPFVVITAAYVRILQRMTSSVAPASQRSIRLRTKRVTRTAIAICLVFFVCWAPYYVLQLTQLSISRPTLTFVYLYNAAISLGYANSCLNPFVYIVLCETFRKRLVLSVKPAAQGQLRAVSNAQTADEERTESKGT

[5] = target: SSTR2 (UniProt P30874 1-369)
SSTR2, sequence (P30874 whole entry): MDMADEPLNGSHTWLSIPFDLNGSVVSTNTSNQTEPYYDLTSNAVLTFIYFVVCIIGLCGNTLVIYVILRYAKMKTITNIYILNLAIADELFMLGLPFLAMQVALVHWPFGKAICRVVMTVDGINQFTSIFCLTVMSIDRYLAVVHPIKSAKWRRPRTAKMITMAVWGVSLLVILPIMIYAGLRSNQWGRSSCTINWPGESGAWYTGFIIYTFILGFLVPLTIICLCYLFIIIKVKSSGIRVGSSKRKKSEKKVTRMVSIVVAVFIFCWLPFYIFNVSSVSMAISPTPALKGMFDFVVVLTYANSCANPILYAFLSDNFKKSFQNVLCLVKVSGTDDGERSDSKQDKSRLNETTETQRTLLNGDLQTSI

[6] = target: T3, FPRL1 (UniProt P25090 1-351)
T3 sequence (looked up): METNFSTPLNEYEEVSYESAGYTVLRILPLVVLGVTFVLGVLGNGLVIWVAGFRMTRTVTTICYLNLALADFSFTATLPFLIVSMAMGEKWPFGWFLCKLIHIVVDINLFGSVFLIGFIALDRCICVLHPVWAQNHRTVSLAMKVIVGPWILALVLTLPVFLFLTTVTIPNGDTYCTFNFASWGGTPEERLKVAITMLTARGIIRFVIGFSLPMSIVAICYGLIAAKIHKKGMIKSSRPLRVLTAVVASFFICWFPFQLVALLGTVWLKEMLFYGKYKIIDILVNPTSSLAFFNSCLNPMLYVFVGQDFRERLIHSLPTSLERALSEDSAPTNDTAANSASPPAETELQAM

[7] = target: T4, GALR1 (UniProt P47211 1-349)
T4 sequence (looked up): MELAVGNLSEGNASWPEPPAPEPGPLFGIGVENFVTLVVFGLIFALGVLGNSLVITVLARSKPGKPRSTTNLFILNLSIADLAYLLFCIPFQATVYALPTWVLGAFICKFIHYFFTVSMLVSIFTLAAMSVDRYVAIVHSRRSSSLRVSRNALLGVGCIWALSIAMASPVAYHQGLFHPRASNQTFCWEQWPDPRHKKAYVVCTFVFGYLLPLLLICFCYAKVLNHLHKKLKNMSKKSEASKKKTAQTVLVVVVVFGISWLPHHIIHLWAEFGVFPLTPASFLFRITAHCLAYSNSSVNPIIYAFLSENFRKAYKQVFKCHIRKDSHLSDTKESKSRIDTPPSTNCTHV

[8] = target: T5, ADRA2A (UniProt P08913 1-465)
T5 sequence (looked up): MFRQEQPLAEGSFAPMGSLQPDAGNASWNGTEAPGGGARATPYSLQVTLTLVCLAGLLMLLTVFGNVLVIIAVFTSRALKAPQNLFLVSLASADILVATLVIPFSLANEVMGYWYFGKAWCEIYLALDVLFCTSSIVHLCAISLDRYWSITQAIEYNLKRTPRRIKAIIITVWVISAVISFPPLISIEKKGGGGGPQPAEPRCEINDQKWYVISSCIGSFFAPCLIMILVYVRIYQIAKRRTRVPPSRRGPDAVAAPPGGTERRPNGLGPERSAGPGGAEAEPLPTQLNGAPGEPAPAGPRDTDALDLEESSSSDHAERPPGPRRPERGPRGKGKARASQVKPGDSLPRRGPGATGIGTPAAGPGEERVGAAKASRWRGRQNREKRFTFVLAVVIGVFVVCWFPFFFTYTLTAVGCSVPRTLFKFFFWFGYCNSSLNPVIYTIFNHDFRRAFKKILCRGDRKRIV

[9] = target: PTGIR (UniProt P43119 1-386, limits assumed)
PTGIR, sequence (P43119 whole entry): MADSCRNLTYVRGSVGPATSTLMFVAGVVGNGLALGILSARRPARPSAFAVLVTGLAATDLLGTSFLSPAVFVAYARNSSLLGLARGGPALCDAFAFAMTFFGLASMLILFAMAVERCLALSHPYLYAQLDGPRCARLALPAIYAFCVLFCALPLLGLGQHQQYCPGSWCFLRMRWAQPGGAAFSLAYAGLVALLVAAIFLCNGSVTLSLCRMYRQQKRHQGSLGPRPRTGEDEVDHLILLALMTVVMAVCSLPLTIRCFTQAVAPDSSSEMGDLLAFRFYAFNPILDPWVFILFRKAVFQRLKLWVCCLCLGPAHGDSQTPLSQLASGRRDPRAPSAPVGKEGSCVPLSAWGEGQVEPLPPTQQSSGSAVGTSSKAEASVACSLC

[10] = target: T6, CALCR-RAMP3 (UniProt P30988 25-474; O60896 24-148, limits assumed)
T6 sequence (looked up) 1: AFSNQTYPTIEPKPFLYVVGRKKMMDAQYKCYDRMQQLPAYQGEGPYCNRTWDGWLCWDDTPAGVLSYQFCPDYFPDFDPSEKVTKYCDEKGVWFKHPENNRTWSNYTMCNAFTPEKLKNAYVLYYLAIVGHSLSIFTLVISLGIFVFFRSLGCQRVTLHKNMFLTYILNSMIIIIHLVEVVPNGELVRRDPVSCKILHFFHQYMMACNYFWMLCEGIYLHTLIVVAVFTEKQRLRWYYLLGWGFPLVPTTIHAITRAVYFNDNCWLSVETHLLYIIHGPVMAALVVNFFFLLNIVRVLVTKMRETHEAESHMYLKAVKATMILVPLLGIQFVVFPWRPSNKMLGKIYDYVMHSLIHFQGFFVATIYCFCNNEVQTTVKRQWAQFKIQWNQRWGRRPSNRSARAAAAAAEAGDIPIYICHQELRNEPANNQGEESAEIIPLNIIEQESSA
T6 sequence (looked up) 2: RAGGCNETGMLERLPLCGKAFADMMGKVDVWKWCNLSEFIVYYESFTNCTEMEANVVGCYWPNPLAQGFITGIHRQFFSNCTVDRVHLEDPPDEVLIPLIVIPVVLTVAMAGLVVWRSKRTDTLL

B1: octadecaneuropeptide (ODN) (peptide)
peptide: QATVGDVNTDRPGLLDLK
modifications: also: synthesised on Rink amide resin, C-terminal amide not given here outright
[1]
  % Activity, arrestin, antagonist mode, 2.5 uM: 22.7%
[2]
  % Activity, arrestin, antagonist mode, 2.5 uM: -1.7%
[3]
  % Activity, arrestin, antagonist mode, 2.5 uM: -9.2%
[4]
  % Activity, arrestin, antagonist mode, 2.5 uM: 5.1%
[5]
  % Activity, arrestin, antagonist mode, 2.5 uM: -20.5%
[6]
  % Activity, arrestin, antagonist mode, 2.5 uM: -17.7%
[7]
  % Activity, arrestin, antagonist mode, 2.5 uM: -22.5%
[8]
  % Activity, arrestin, antagonist mode, 2.5 uM: -27.2%
[9]
  % Activity, arrestin, antagonist mode, 2.5 uM: -20%
[10]
  % Activity, arrestin, antagonist mode, 2.5 uM: -0.1%
